# Measurements: the supplement of paper PMC10567573
# B1: CDC25A (parent)
# chain: KKFRTKSRTWAGEKSKREMYSRLK
# B2: PTPLAD1 (parent)
# chain: YINFRHLYKQRRRRYGQKKKKIH
# Variants of: B1
# Assay: protein stability index of a GFP-peptide fusion (GPS, HEK-293T) (PSI 1-6); higher = more stable
# Conditions: c terminus: a fixed tail appended
# 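Further: lentivirally expressed fusions sorted by FACS into six bins by GFP to DsRed ratio, PSI derived from sequencing read proportions per bin multiplied by bin number.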
row,Variant,protein stability index
1,KKARTKSRTWAGEKSKREMYSRLK [F3A],3.28
2,KKCRTKSRTWAGEKSKREMYSRLK [F3C],3.22
3,KKGRTKSRTWAGEKSKREMYSRLK [F3G],3.49
4,KKNRTKSRTWAGEKSKREMYSRLK [F3N],3.12
5,KKIRTKSRTWAGEKSKREMYSRLK [F3I],3.06
6,KKKRTKSRTWAGEKSKREMYSRLK [F3K],3.16
7,KKLRTKSRTWAGEKSKREMYSRLK [F3L],3.49
8,KKHRTKSRTWAGEKSKREMYSRLK [F3H],3.1
9,KKMRTKSRTWAGEKSKREMYSRLK [F3M],3.61
10,VKFRTKSRTWAGEKSKREMYSRLK [K1V],2.65
11,TKFRTKSRTWAGEKSKREMYSRLK [K1T],4.1
12,LKFRTKSRTWAGEKSKREMYSRLK [K1L],1.95
13,PKFRTKSRTWAGEKSKREMYSRLK [K1P],3.25
14,RKFRTKSRTWAGEKSKREMYSRLK [K1R],3.04
15,YKFRTKSRTWAGEKSKREMYSRLK [K1Y],2.71
16,WKFRTKSRTWAGEKSKREMYSRLK [K1W],2.37
17,IKFRTKSRTWAGEKSKREMYSRLK [K1I],1.89
18,FKFRTKSRTWAGEKSKREMYSRLK [K1F],2.37

row,Variant,protein stability index
1,AKFRTKSRTWAGEKSKREMYSRLK [K1A],3.59
2,DKFRTKSRTWAGEKSKREMYSRLK [K1D],3.83
3,NKFRTKSRTWAGEKSKREMYSRLK [K1N],2.7
4,QKFRTKSRTWAGEKSKREMYSRLK [K1Q],3.35
5,SKFRTKSRTWAGEKSKREMYSRLK [K1S],3.22
6,EKFRTKSRTWAGEKSKREMYSRLK [K1E],3.74
7,KIFRTKSRTWAGEKSKREMYSRLK [K2I],2.38
8,KPFRTKSRTWAGEKSKREMYSRLK [K2P],2.6
9,KGFRTKSRTWAGEKSKREMYSRLK [K2G],4.12
10,KSFRTKSRTWAGEKSKREMYSRLK [K2S],3.06
11,KDFRTKSRTWAGEKSKREMYSRLK [K2D],3.22
12,KWFRTKSRTWAGEKSKREMYSRLK [K2W],2.63
13,KCFRTKSRTWAGEKSKREMYSRLK [K2C],2.38
14,KEFRTKSRTWAGEKSKREMYSRLK [K2E],3.27
15,KMFRTKSRTWAGEKSKREMYSRLK [K2M],1.76
16,KYFRTKSRTWAGEKSKREMYSRLK [K2Y],3.09
17,KHFRTKSRTWAGEKSKREMYSRLK [K2H],1.93

# Variants of: B2
# Assay: as above
# Conditions: c terminus: native
row,Variant,protein stability index
1,YINFRHLYKQRRRRYGQKKKMIH [K21M],2.3
2,YINFRHLYKQRRRRYGQKKKNIH [K21N],2.27
3,YINFRHLYKQRRRRYGQKKKPIH [K21P],1.99
4,YINFRHLYKQRRRRYGQKKKTIH [K21T],2.7
5,YINFRHLYKQRRRRYGQKKKHIH [K21H],1.94
6,YINFRHLYKQRRRRYGQKKKFIH [K21F],2.76
7,YINFRHLYKQRRRRYGQKKKQIH [K21Q],1.39
8,YINFRHLYKQRRRRYGQKKKDIH [K21D],1.33
9,YINFRHLYKQRRRRYGQKKKWIH [K21W],2.37
10,YINFRHLYKQRRRRYGQKKKCIH [K21C],2.5
11,YINFRHLYKQRRRRYGQKKKSIH [K21S],2.33
12,YINFRHLYKQRRRRYGQKKKVIH [K21V],1.6
13,YINFRHLYKQRRRRYGQKKKIIH [K21I],2.14
14,YINFRHLYKQRRRRYGQKKKLIH [K21L],1.92
15,YINFRHLYKQRRRRYGQKKKYIH [K21Y],1.35
16,YINFRHLYKQRRRRYGQKKKGIH [K21G],2.96
17,YINFRHLYKQRRRRYGQKKKRIH [K21R],2.49
18,YINFRHLYKQRRRRYGQKKKKYH [I22Y],2.08
19,YINFRHLYKQRRRRYGQKKKKSH [I22S],2.33
20,YINFRHLYKQRRRRYGQKKKKQH [I22Q],2.44
21,YINFRHLYKQRRRRYGQKKKKNH [I22N],1.9

row,Variant,protein stability index
1,YINFRHLYKQRRRRYGQKKKKFH [I22F],1.72
2,YINFRHLYKQRRRRYGQKKKKCH [I22C],1.86
3,YINFRHLYKQRRRRYGQKKKKVH [I22V],1.41
4,YINFRHLYKQRRRRYGQKKKKAH [I22A],2.02
5,YINFRHLYKQRRRRYGQKKKKMH [I22M],2.23
6,YINFRHLYKQRRRRYGQKKKKRH [I22R],1.81
7,YINFRHLYKQRRRRYGQKKKKDH [I22D],2.56
8,YINFRHLYKQRRRRYGQKKKKHH [I22H],2.13
9,YINFRHLYKQRRRRYGQKKKKWH [I22W],2.22
10,YINFRHLYKQRRRRYGQKKKKEH [I22E],2.66
11,YINFRHLYKQRRRRYGQKKKKGH [I22G],1.5
12,YINFRHLYKQRRRRYGQKKKKLH [I22L],2.67
13,YINFRHLYKQRRRRYGQKKKKPH [I22P],1.86
14,YINFRHLYKQRRRRYGQKKKKTH [I22T],2.1
15,YINFRHLYKQRRRLYGQKKKKIH [R14L],2.34
16,YINFRHLYKQRRRYYGQKKKKIH [R14Y],1.78
17,YINFRHLYKQRRRVYGQKKKKIH [R14V],2.14
18,YINFRHLYKQRRRNYGQKKKKIH [R14N],2.15
19,YINFRHLYKQRRRSYGQKKKKIH [R14S],1.85
20,YINFRHLYKQRRRTYGQKKKKIH [R14T],1.22
21,YINFRHLYKQRRRPYGQKKKKIH [R14P],2.05

row,Variant,protein stability index
1,YINFRHLYKQRRRRYGDKKKKIH [Q17D],2.23
2,YINFRHLYKQRRRRYGMKKKKIH [Q17M],1.73
3,YINFRHLYKQRRRRYGTKKKKIH [Q17T],2.54
4,YINFRHLYKQRRRRYGYKKKKIH [Q17Y],1.7
5,YINFRHLYKQRRRRYGPKKKKIH [Q17P],1.46
6,YINFRHLYKQRRRRYGLKKKKIH [Q17L],2.07
7,YINFRHLYKQRRRRYGKKKKKIH [Q17K],1.76
8,YINFRHLYKQRRRRYGWKKKKIH [Q17W],1.63
9,YINFRHLYKQRRRRYGEKKKKIH [Q17E],2.55
10,YINFRHLYKQRRRRYGVKKKKIH [Q17V],1.89
11,YINFRHLYKQRRRRYGHKKKKIH [Q17H],1.72
12,YINFRHLYKQRRRRYGRKKKKIH [Q17R],2.59
13,YINFRHLYKQRRRRYGNKKKKIH [Q17N],4
14,YINFRHLYKQRRRRYGFKKKKIH [Q17F],2.3
15,YINFRHLYKQRRRRYGGKKKKIH [Q17G],2.25
16,YINFRHLYKQRRRRYGCKKKKIH [Q17C],1.48
17,YINFRHLYKQRRRRYGAKKKKIH [Q17A],2.66
18,YINFRHLYKQRRRRYVQKKKKIH [G16V],2.44
19,YINFRHLYKQRRRRYSQKKKKIH [G16S],2.71
